Measured values taken from patent US20250304927A1, “PRO-PEPTIDE VARIANTS FOR MODULATING ACTIVITY OF TRANSGLUTAMINASES” (CURIE CO. INC., priority 2022, published 2025).

Assays:
[1] = molecular target: T1, mature evolved transglutaminase (SEQ ID NO: 5) (Streptomyces mobaraensis, UniProt P81453, G359A/K167H/K227R/K228R/N358M/Q126S/Q150A/Q200L); test: transglutaminase thermostability: activity after being held at 37-50 °C; format: biochemical; parameters: key: The symbol, —, represents not determined, neutral, or reduced performance; conditions: relative to wild-type pro-peptide; held at 37° C.-50° C. for 30 minutes, diluted 10-fold to 100-fold
T1 construct: hexa-His tag with two amino acid linker (C); made in house; host or cells: E. coli BL21 (DE3)
Description: The terms “stability” and “thermostability” are used interchangeably to refer to increased residual activity of mature transglutaminase after incubation at elevated temperatures. In some embodiments, a pro-peptide variant increases the stability of a mature transglutaminase compared to the wild type pro-peptide. Measurement of stability is depicted in Example 4.
It is believed that these pro-peptide variants confer thermal stability to mature transglutaminase.

[2] = molecular target: evolved variant of mature Streptomyces mobaraensis transglutaminase, including a two amino acid linker and hexa-his tag (Streptomyces mobaraensis) (UniProt P81453); test: cell-based or functional assay
[3] = molecular target: T1, mature evolved transglutaminase (SEQ ID NO: 5); test: casein assay, inhibition by pro-peptide variants (Method B, activated zymogen); format: biochemical; parameters: key: The symbol, —, represents not determined, neutral, or reduced performance; conditions: relative to wild-type pro-peptide, diluted approximately 20-fold into casein assay solution
Text: Method B. The gene coding for a Pro-transglutaminase (i.e., zymogen form of transglutaminase) variant with the wild-type pro-domain (SEQ ID NO: 2) and an evolved mature domain including a C-terminal His tag (SEQ ID NO: 5), and was cloned into a pET vector operatively linked to the T7 promoter. The expression vector also contains the pMB1 origin of replication and a kanamycin resistance gene. The resulting plasmid was transformed first into E. coli DH-10B, using standard methods known in the art. […]
A secondary screen was performed to determine initial rate of transglutaminase in the presence of the pro-peptide variants using transglutaminase-catalyzed labeling of casein with dansylcadaverine (e.g., a commercially available kit such as the Transglutaminase Fluorogenic Activity Assay Kit, T036, Zedira, Germany). Transglutaminase activity was monitored by measuring the fluorescence (excitation wavelength 332 nm; emission wavelength 500 nm) using a BioTek Synergy H1 microplate reader. Transglutaminase-catalyzed covalent coupling (crosslinking) of monodansylcadaverine with N,N-dimethylcasein produces a product that causes a shift in intensity and wavelength of fluorescence of the dansyl group now linked to the casein. The relative transglutaminase activity is shown by increase of fluorescence intensity over time. […]

[4] = molecular target: T2, evolved variant of mature Streptomyces mobaraensis transglutaminase, including a two amino acid linker and … (Streptomyces mobaraensis, UniProt P81453 79-407); test: cell-based or functional assay
T2 chain: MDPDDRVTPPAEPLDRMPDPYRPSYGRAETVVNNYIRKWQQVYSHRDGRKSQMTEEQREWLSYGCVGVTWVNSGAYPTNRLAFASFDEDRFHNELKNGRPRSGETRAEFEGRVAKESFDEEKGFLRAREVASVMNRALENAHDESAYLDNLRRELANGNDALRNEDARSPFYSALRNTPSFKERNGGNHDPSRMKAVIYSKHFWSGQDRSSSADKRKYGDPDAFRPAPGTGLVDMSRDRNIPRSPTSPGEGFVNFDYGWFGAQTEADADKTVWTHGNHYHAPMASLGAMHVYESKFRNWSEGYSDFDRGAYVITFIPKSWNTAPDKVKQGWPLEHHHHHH

E7S, D21R: combination variant of pro-peptide SEQ ID NO: 2, Method B (MDNGAGSETKSYAETYRLTARDVANINALNESAPAASSAGPSFRAP)
Thermostability [1]: —

L18V, D21T: combination variant of pro-peptide SEQ ID NO: 2, Method B (MDNGAGEETKSYAETYRVTATDVANINALNESAPAASSAGPSFRAP)
Thermostability [1]: —

D2I, D21T, D22Q: combination variant of pro-peptide SEQ ID NO: 2, Method B (MINGAGEETKSYAETYRLTATQVANINALNESAPAASSAGPSFRAP)
Thermostability [1]: —

pro-peptide variant D2I, E2S, D21T (Method B)
Inhibition [2]: > 2 fold

D2S, D22Q: combination variant of pro-peptide SEQ ID NO: 2, Method B (MSNGAGEETKSYAETYRLTADQVANINALNESAPAASSAGPSFRAP)
Thermostability [1]: —

E7S, L18V, D21R: combination variant of pro-peptide SEQ ID NO: 2, Method B (MDNGAGSETKSYAETYRVTARDVANINALNESAPAASSAGPSFRAP)
Thermostability [1]: —

D21T: substitution variant of pro-peptide SEQ ID NO: 2 (MDNGAGEETKSYAETYRLTATDVANINALNESAPAASSAGPSFRAP) [Variant D21T]
Inhibition [3]: —

D2S, E7S: combination variant of pro-peptide SEQ ID NO: 2, Method B (MSNGAGSETKSYAETYRLTADDVANINALNESAPAASSAGPSFRAP)
Thermostability [1]: —

D2S, E7S, D21I: combination variant of pro-peptide SEQ ID NO: 2, Method B (MSNGAGSETKSYAETYRLTAIDVANINALNESAPAASSAGPSFRAP)
Thermostability [1]: —

D2I, E7S, D21I: combination variant of pro-peptide SEQ ID NO: 2, Method B (MINGAGSETKSYAETYRLTAIDVANINALNESAPAASSAGPSFRAP)
Thermostability [1]: —

D2I, E7S, L18V, D21R: combination variant of pro-peptide SEQ ID NO: 2, Method B (MINGAGSETKSYAETYRVTARDVANINALNESAPAASSAGPSFRAP)
Thermostability [1]: —

D2S, E7S, D22Q: combination variant of pro-peptide SEQ ID NO: 2, Method B (MSNGAGSETKSYAETYRLTADQVANINALNESAPAASSAGPSFRAP)
Thermostability [1]: —

E7S, L18V, D21I: combination variant of pro-peptide SEQ ID NO: 2, Method B (MDNGAGSETKSYAETYRVTAIDVANINALNESAPAASSAGPSFRAP)
Thermostability [1]: —

L18V, D21T, D22Q: combination variant of pro-peptide SEQ ID NO: 2, Method B (MDNGAGEETKSYAETYRVTATQVANINALNESAPAASSAGPSFRAP)
Thermostability [1]: —

D2S, E7S, D21T, D22Q: combination variant of pro-peptide SEQ ID NO: 2, Method B (MSNGAGSETKSYAETYRLTATQVANINALNESAPAASSAGPSFRAP)
Thermostability [1]: —

D2F: substitution variant of pro-peptide SEQ ID NO: 2 (MFNGAGEETKSYAETYRLTADDVANINALNESAPAASSAGPSFRAP) [Variant D2F]
Thermostability [1]: —

E7S, D21T, D22Q: combination variant of pro-peptide SEQ ID NO: 2, Method B (MDNGAGSETKSYAETYRLTATQVANINALNESAPAASSAGPSFRAP)
Thermostability [1]: —

D2I, E2S, D21T: combination variant of pro-peptide SEQ ID NO: 2, Method B; E2S probably E7S (MINGAGSETKSYAETYRLTATDVANINALNESAPAASSAGPSFRAP)
Inhibition [3]: >2 fold
Thermostability [1]: —

D2S, D21T, D22Q: combination variant of pro-peptide SEQ ID NO: 2, Method B (MSNGAGEETKSYAETYRLTATQVANINALNESAPAASSAGPSFRAP)
Thermostability [1]: —

D21T, D22Q: combination variant of pro-peptide SEQ ID NO: 2, Method B (MDNGAGEETKSYAETYRLTATQVANINALNESAPAASSAGPSFRAP)
Thermostability [1]: —

D2I, D22Q: combination variant of pro-peptide SEQ ID NO: 2, Method B (MINGAGEETKSYAETYRLTADQVANINALNESAPAASSAGPSFRAP)
Thermostability [1]: —

E7S, D21T: combination variant of pro-peptide SEQ ID NO: 2, Method B (MDNGAGSETKSYAETYRLTATDVANINALNESAPAASSAGPSFRAP)
Thermostability [1]: —

D2S, L18V, D22Q: combination variant of pro-peptide SEQ ID NO: 2, Method B (MSNGAGEETKSYAETYRVTADQVANINALNESAPAASSAGPSFRAP)
Thermostability [1]: —

D2I, E7S, D22Q: combination variant of pro-peptide SEQ ID NO: 2, Method B (MINGAGSETKSYAETYRLTADQVANINALNESAPAASSAGPSFRAP)
Thermostability [1]: —

MDNGAGEETKSYAETYRVTATQVANINALNESAPAASSAGPSFRAP [pro-peptide variant L18V, D21T, D22Q (Method B)]
Inhibition [4]: > 2 fold

MDNGAGSETKSYAETYRLTADQVANINALNESAPAASSAGPSFRAP [pro-peptide variant E7S, D22Q (Method B)]
Inhibition [4]: > 1.2 fold

MINGAGSETKSYAETYRVTARDVANINALNESAPAASSAGPSFRAP [pro-peptide variant D2I, E7S, L18V, D21R (Method B)]
Inhibition [4]: > 2 fold

MINGAGEETKSYAETYRLTADQVANINALNESAPAASSAGPSFRAP [pro-peptide variant D2I, D22Q (Method B)]
Inhibition [4]: > 1.2 fold
